Laboratory results taken from patent publication US20090041783A1 (MOCHIDA PHARMACEUTICAL, published 2009).
Changes are numbered by the printed parent chain.

B1: F1249-20-1 (antibody, V domains shown)
VH: QVQLQQSGAELVRPGVSVKISCKGSGYTFTDYAMHWVKQSHAKSLEWIGVISTYYGDTSYNQKFKGKATMTVDKSSSTAYMELARLTSEDSAIYYCARAEDYDPWFAYWGQGTLVTVSA
VL: DIVLTQSPASLAVSLGQRATISCRASESVDSYGNSFMYWYQQKPGQPPKLLIYRASNLESGIPARFSGSGSRTDFTLTINPVEADDVATYYCQQSDEDPLTFGAGTKLELKR
B2: F1245-4-1 (antibody, V domains shown)
VH: QVQLQQPGAELVKPGASVKLSCKASGCTFTSYWMHWVKQRPGQGLEWIGMIHPNSDNTNYNEKFKSKATLTVDKSSSTAYMHLSSLTSEDSAVYYCATHYYDYVDYWGQGTTLTVSS
VL: NIVMTQTPKFLLVSAGDRVTITCKASQSVSNDVAWYQQKPGQSPKLLIYYASNRYTGVPDRFTGSGYGTDFTFTISTVQAEDLAVYFCQQDYSSPWTFGGGTKLEIKR
B3: F1245-5-1 (antibody, V domains shown)
VH: QVQLQQPGAELVKPGASVKLSCKASGYTFISYWMHWVKQRPGQGLEWIGMIHPNSGSTHYNEKFKSKATLTVDKSSSTAYMQLSSLTSEDSAVYYCARGGVTPVAYWGQGTLVTVSA
VL: B2 VL with N1S
B4: F1249-18-2 (antibody, V domains shown)
VH: QVQLQQPGAELVKPGASVKLSCKASGYTFTSYWMHWLKQRPGQGLEWIGMIHPNSDITNYNEKFKNKATLTVDKSSSTAYMQLSSLTSEDSAVYYCARSGDYYAMDYWGQGTSVTVSS
VL: B2 VL with N1S, W96P
B5: F1249-5-1 (antibody, V domains shown)
VH: B4 VH with D73A, S99L
VL: B2 VL with N1S, A34T, W96P
B6: F1257-3-1 (antibody, V domains shown)
VH: QVTLKESGPGMLQPSKTLSLTCSFSGFSLSTSGMVVSWIRQPSGKSLEWLAAIDWDGDKYYNPSLKSRLTVSKDTSNTQVFLKISSVDIADTATYYCARTPYYGYKEAYYFDYWGQGVKVTVSS
VL: DIQMTQSPASLSASLEEIVTITCKASRAIDDYLSWYQQKPGKSPQLLIYDATSLADGVPSRFSGSRSGTQYSLKISRPQVDDSGIYYCLQSYSTPWTFGGGTKLDLKR
B7: F1251-1-1 (antibody, V domains shown)
VH: QVNLLQSGAALVKPGASVKLSCKASGYTFTDYYIHWVKQSHGKSLEWIGYINPNSGYTNYNEKFKSKATLTVDKSTNTAYMELSRLTSEDSATYYCTRCNSGYGDWFAYWGQGTLLTVSS
VL: DIQMTQSPPVLSASVGDRVTLSCKASQNINKNLDWYQQKHGEAPKLLIYYTNNLQTDIPSRFSGSGSGTDYTLTISSLQPEDVATFYCYQYNSGPGTFGAGTKLELKR
B8: F1249-22-1 (antibody, V domains shown)
VH: QVQLQQPGAELVKPGASVKLSCKASGYTFTSYWMQWVKERPGQGLEWIGEIDPSDSYTNYNQKFKGKATLTVDTSSSTACMQLSSLTSEDSAVYYCARGAITTATLDYWGQGTTLTVSS
VL: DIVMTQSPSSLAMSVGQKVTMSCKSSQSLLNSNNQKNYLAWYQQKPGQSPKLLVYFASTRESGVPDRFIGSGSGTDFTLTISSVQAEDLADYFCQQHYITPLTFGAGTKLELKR
B9: F1249-3-2 (antibody, V domains shown)
VH: EVQLVESGGGLVKPGGSLKLSCAASGFTFSSYGMSWVRQTPDKRLEWVATISSGGSYTYYSDSVKGRFTISRDNAKNNLYLQLSSLKSQDTAIYYCARDSGYFDYWGQGTTLTVSS
VL: NIVLTQSPASLAVSLGQRATISCRASESVDSYGNSFMHWYQQKPGQPPKLLIYLASNLESGVPARFSGSGSRTDFTLTIDPVEADDAATYYCQQNNEDPRTFGGGTKLEIKR
B10: F1246-1-1 (antibody, V domains shown)
VH: EVQLVESGGDLVKPGGSLKLSCAASGFTFSSYGMSWVRQTPDKRLEWVATISNGGTYTYYPDSVKGRFTISRDNAKNTLYLQMSSLKSDDTAMYYCGRLRDYYAMDYWGQGTSVTVSS
VL: B1 VL with Y38H, D96N, L100W, A104G, L110I
B11: F1249-24-1 (antibody, V domains shown)
VH: B1 VH
VL: B1 VL with Y38H
B12: F1249-30-1 (antibody, V domains shown)
VH: B1 VH with T69A, E89D
VL: B1 VL with Y38H
B13: F1245-7-1 (antibody, V domains shown)
VH: QVQLQQPGAELVKPGASVKLSCKASGYTFTSYWMHWVKQRPGQGLEWIGMIHPNSGSTNYNEKFKSKATLTVDKSSSTAYMQLSSLTSEDSAVYYCASPVTAVVEYYFDYWGQGTTLTVSS
VL: SIVMTQTPKFLLVSAGDRVTITCKASQSVSNDVAWYQQKPGQSPKLLIYYASNRYTGVPDRFTGSGYGTDFTFTISTVQAEDLAVYFCQQDYSSLTFGSGTKLEIKR

Legend:
[1] = target: T1, human GPVI extracellular region-human Fc fusion protein (hGPVI-hFc) (human); assay: ELISA of hybridoma culture supernatant on coated hGPVI-hFc (selection criterion)
T1 construct: Expressed in COS-1, purified on Protein A; also called GPVI-HHH-hFc; hGPVIHHH-hFc
Experimental: Next, culture supernatant was added to each well and incubated at 37° C. for one hour. After incubation, the well was washed three times with the saline containing 0.05% Tween20. Peroxidase-labeled anti-mouse immunoglobulin antibody (DAKO, P260) was 1000-fold diluted with D-PBS containing 10% rabbit serum and added to each well at 50 μL. After incubation at 37° C. for one hour, washing in a similar manner was performed and TMB solution (BioFix) was added to each well. After ten minutes at room temperature, the reaction was terminated with 0.5 M sulfuric acid solution. Subsequently, absorbance at 450 nm was measured with the plate spectrophotometer (Multiscan JX, Dainippon Pharmaceutical). As a result, the cell whose culture supernatant reacted to hGPVI-hFc was selected and a cloning with limiting dilution method (“The Introduction to Monoclonal Antibody Experimental Procedure” written by Tamie Andoh and Takeshi Chiba (Kodansha, p 83)) was performed. Eight days later, screening was done in a similar manner and the antibody which reacts to hGPVI-hFc was selected.
After one week, hybridoma, which produces a desired antibody was screened using the binding property to hGPVI-hFc and hGPVI-mL9-hFc prepared in EXAMPLE 7 as an index. That is, the purified hGPVI-hFc or hGPVI-mL9-hFc, which was prepared in EXAMPLE 1, was diluted with D-PBS (pH7.4) to 1 μg/mL. And 50 μL/well of the solution was added to make hGPVI-hFc or hGPVI-mL9-hFc-coated plate using the same method as that of EXAMPLE 2. Next, a culture supernatant was added to each well, and after incubation at room temperature for one hour, by the same method as that of EXAMPLE 2, using peroxidase-labeled anti-mouse immunoglobulin antibody (DAKO, P260) a reaction was performed to measure an absorbance. As a result, the cell producing an antibody that binds to the purified hGPVI-hFc (absorbance: equal to or more than one), but not hGPVI-mL9-hFc (abdorbance: equal to or less than 0.5) was selected and cloned by the method described in EXAMPLE 2. Eight through ten days later, a screening was done as with the similar way to obtain a hybridoma producing an L9-specific mouse anti-human GPVI antibody. As with EXAMPLE 2B (3), the obtained hybridoma was cultured and a monoclonal antibody was purified. The sub-type of each antibody was determined using IsoStrip Mouse Monoclonal antibody Isotyping Kit (Roche).

[2] = target: T1, human GPVI extracellular region-human …; assay: ELISA on immobilised hGPVI-hFc; + A450 0.5-1.0, ++ 1.0-2.0, +++ more than 2.0
Experimental: The hGPVI-hFc prepared by EXAMPLE 1B was diluted with D-PBS to 2 μg/mL and added to immunoplate (Maxisorp NUNC) at 50 μL/well. After incubation at 37° C. for one hour, the well was washed five times with ion-exchanged water, and D-PBS (pH7.4) containing 2% StabilGuard (Surmodics) was added to each well in 100 μL for blocking. Next, culture supernatant was added to each well and incubated at 37° C. for one hour. After incubation, the well was washed three times with the saline containing 0.05% Tween20. Peroxidase-labeled anti-mouse immunoglobulin antibody (DAKO, P260) was 1000-fold diluted with D-PBS containing 10% rabbit serum and added to each well at 50 μL. After incubation at 37° C. for one hour, washing in a similar manner was performed and TMB solution (BioFix) was added to each well. After ten minutes at room temperature, the reaction was terminated with 0.5 M sulfuric acid solution. Subsequently, absorbance at 450 nm was measured with the plate spectrophotometer (Multiscan JX, Dainippon Pharmaceutical). As a result, the cell whose culture supernatant reacted to hGPVI-hFc was selected and a cloning with limiting dilution method (“The Introduction to Monoclonal Antibody Experimental Procedure” written by Tamie Andoh and Takeshi Chiba (Kodansha, p 83)) was performed. Eight days later, screening was done in a similar manner and the antibody which reacts to hGPVI-hFc was selected.
(§1) To analyze a property for each antibody obtained in EXAMPLE 13, binding to human GPVI-hFc, competition with F1232-37-2 described in EXAMPLE 4 and specificity for L9 loop were investigated. That is, as for the binding to human GPVI, according to the method of EXAMPLE 2, a binding activity to immobilized antigen was measured. For the binding activity, the range of absorbance from 0.5 to 1.0 is represented by “+”, from 1.0 to 2.0 by “++”, the range more than 2.0 by “+++”. The competitive test with F1232-37-2 was performed as follows. That is, according to the method by Nakane et al. (J. Histochem. Cytochem., 22, 1084, 1974), peroxidase (TOYOBO)-labeled F1232-37-2 antibody was prepared and an antibody concentration was calculated from the amount of the antibody used.

[3] = target: T1, human GPVI extracellular region-human …; assay: competition ELISA on hGPVI-hFc plate; competitor: peroxidase-labelled F1232-37-2; +++ more than 50%, ++ 30-50%, + 10-30% inhibition
Experimental: as §1
Next, by using the peroxidase-labeled antibody, the competitive test for a variety of purified antibody was performed. That is, 25 μL of the above labeled antibody and 25 μL of each purified antibody were added to well of hGP-hFc-immobilized plate. After incubation at 37° C. for one hour, the well was washed five times with the saline containing 0.05% Tween20, and the reaction mixture was developed with TMB solution (BioFix). After incubation at room temperature for 10 minutes, the reaction was terminated with 0.5 M sulfuric acid solution and an absorbance at 450 nm was measured with the plate spectrophotometer (Multi-Scan JX, Dainippon Pharmaceutical).

[4] = target: T1, human GPVI extracellular region-human …; assay: ELISA, collagen on plate, hGPVI-hFc plus antibody; +++ more than 50%, ++ 30-50%, + 10-30% inhibition

T1 sequence (chain, as listed by the source limits assumed): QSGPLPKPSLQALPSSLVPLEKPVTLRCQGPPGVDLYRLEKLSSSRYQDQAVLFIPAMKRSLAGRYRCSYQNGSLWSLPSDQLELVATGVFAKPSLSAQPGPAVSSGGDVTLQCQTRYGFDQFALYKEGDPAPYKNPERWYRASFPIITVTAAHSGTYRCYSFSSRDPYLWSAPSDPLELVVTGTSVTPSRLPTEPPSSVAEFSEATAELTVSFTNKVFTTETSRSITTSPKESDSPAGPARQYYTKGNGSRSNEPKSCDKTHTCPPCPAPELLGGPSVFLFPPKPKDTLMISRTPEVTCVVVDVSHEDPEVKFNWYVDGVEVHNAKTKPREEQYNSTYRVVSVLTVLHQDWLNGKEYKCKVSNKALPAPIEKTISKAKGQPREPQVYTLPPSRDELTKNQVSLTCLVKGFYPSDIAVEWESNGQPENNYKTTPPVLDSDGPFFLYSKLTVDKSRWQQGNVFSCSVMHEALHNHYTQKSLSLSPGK

Binder	absorbance [1] [absorbance]	absorbance [2] [od]	percent inhibition [3] [%]	percent inhibition [4] [%]
B1	≥ 1	> 2	30 to 50	
B2	≥ 1	> 2	30 to 50	10 to 30
B3	≥ 1	1 to 2	30 to 50	10 to 30
B4	≥ 1	> 2	30 to 50	> 50
B5	≥ 1	1 to 2	30 to 50	10 to 30
B6		> 2		
B7	≥ 1	0.5 to 1	10 to 30	10 to 30
B8	≥ 1	0.5 to 1	10 to 30	30 to 50
B9	≥ 1	0.5 to 1	30 to 50	10 to 30
B10	≥ 1	1 to 2	10 to 30	
B11	≥ 1	> 2	> 50	10 to 30
B12	≥ 1	> 2	> 50	
B13	≥ 1	1 to 2	10 to 30	
